These results are taken from paper PMC12187869, “Transport of the uremic toxin symmetric dimethylarginine (SDMA) by renal transport proteins” (Amino Acids, 2025).

As usually defined, the Km is the concentration of substrate that gives half-maximal velocity.

This data set deals with T1, CN=C(NC)NCCC[C@H](N)C(=O)O.
T1 construct: HEK293 cells stably expressing human CAT1
In words: [3H]SDMA uptake kinetics (Km) and efflux in HEK-CAT1 cells. It counts as cell-based, Homo sapiens.

Chain of CAT1 (Homo sapiens) (chain, as listed by the source): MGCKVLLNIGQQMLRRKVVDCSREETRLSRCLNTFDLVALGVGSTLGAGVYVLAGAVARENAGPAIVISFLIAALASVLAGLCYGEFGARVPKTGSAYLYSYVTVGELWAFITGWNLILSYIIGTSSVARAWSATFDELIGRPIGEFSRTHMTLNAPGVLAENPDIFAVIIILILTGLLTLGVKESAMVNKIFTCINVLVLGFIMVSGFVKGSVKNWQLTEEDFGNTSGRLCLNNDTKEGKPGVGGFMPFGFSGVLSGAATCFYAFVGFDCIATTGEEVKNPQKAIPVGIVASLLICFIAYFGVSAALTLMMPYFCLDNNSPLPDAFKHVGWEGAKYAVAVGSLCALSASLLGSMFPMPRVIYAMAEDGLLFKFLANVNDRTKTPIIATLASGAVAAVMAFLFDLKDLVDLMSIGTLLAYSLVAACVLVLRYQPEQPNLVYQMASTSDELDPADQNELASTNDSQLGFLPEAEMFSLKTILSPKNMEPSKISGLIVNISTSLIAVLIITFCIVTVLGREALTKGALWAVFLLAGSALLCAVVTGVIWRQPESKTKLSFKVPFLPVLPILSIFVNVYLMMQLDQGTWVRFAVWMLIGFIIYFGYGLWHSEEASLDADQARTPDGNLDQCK

For the substance CAT1 (Homo sapiens), the Km is 246 µM.
